Some targets named below: HLA-A*31:01; HLA-A*33:01; HLA-A*68:01; HLA-A*03:01; HLA-A*11:01.
Common to all, as to assay: IEDB peptide-MHC binding, purified MHC/competitive/radioactivity; filed as Kd, often an IC50 or EC50 that approximates it; ≥ and ≤ were set here for values at or beyond the usual limits of such assays
Setting [1] is: source organism: SARS coronavirus Tor2.
Setting [2] is: source organism: Vaccinia virus WR.
The mark [3] stands for this setting: source organism: Lymphocytic choriomeningitis virus (strain WE).
Where [4] appears, read: source organism: Mammarenavirus brazilense.

Bounds are passed on as bounds.

With MSAPPAEYK, the dissociation constant Kd – broadly, the free concentration of one partner at which half of the binding sites on the other are occupied at equilibrium, for simple one-to-one binding – in the assay with HLA-A*31:01 (setting [1]) was found to be 37.8 nM; with HLA-A*33:01 (setting [1]), 1860 nM; with HLA-A*68:01 (setting [1]), 2.36 nM; with HLA-A*03:01 (setting [1]), 4.14 nM; in the assay with HLA-A*11:01 (setting [1]), 0.948 nM.
As to NAVYQCRKLR, the dissociation constant (Kd) with HLA-A*31:01 (setting [2]) was found to be 348 nM; in the assay with HLA-A*33:01 (setting [2]), 6350 nM; in the assay with HLA-A*68:01 (setting [2]) it was 332 nM; with HLA-A*03:01 (setting [2]), 7270 nM; with HLA-A*11:01 (setting [2]) it was 17700 nM.
On the same counts, the results for NFSIIELPY are 6320 nM, at least 35000 nM, 3440 nM, 716 nM and 1070 nM.
The like results for NIERQDYRR were, in that order, 1500 nM, 924 nM, 119 nM, at least 66800 nM and 12000 nM.
On the same counts, the results for NIRLTDTEYR are 59 nM, 157 nM, 1.39 nM, at least 70100 nM and 17500 nM.
As to NQNLIPSTVK, the Kd with HLA-A*31:01 (setting [2]) was at least 24800 nM; in the assay with HLA-A*33:01 (setting [2]) it was at least 70000 nM; with HLA-A*68:01 (setting [2]) it was 406 nM; with HLA-A*03:01 (setting [2]), 14100 nM; with HLA-A*11:01 (setting [2]), 360 nM.
On the same counts, the results for NSSIISLFY are 5260 nM, 7080 nM, 125 nM, 56.7 nM and 44.6 nM.
On the same counts, the results for NTILLSDKGK are at least 20300 nM, 12400 nM, 1.45 nM, 96.6 nM and 190 nM.
On the same counts, the results for NTVVRDFENY are at least 70000 nM, at least 21700 nM, 235 nM, at least 39700 nM and 520 nM.
PLHKYCVNLY: the equilibrium dissociation constant (Kd) was at least 23200 nM with HLA-A*31:01 (setting [2]); 14400 nM in the assay with HLA-A*33:01 (setting [2]); 6570 nM with HLA-A*68:01 (setting [2]); at least 70100 nM with HLA-A*03:01 (setting [2]); at least 25600 nM with HLA-A*11:01 (setting [2]).
PMPYMISTY: the Kd was at least 34900 nM with HLA-A*31:01 (setting [2]); at least 77700 nM with HLA-A*33:01 (setting [2]); 1340 nM with HLA-A*68:01 (setting [2]); at least 45300 nM in the assay with HLA-A*03:01 (setting [2]); at least 42100 nM with HLA-A*11:01 (setting [2]).
On the same counts, the results for PSLEYGANY are at least 10000 nM, 7940 nM, at least 60600 nM, 17100 nM and at least 21700 nM.
The like results for PVDTEFINK were, in that order, 12700 nM, at least 41800 nM, 3570 nM, 19900 nM and 89.5 nM.
With PVVAAIITR, the Kd with HLA-A*31:01 (setting [1]) is 1240 nM; in the assay with HLA-A*33:01 (setting [1]), 7790 nM; with HLA-A*68:01 (setting [1]) it was 269 nM; with HLA-A*03:01 (setting [1]), 11200 nM; in the assay with HLA-A*11:01 (setting [1]), 1790 nM.
QALNSVANR: the Kd is 12 nM in the assay with HLA-A*31:01 (setting [2]); 104 nM with HLA-A*33:01 (setting [2]); 55.7 nM with HLA-A*68:01 (setting [2]); at least 20200 nM in the assay with HLA-A*03:01 (setting [2]); 845 nM in the assay with HLA-A*11:01 (setting [2]).
Consider QSQMLLIVLK, for which the Kd with HLA-A*31:01 (setting [1]) is 1410 nM; with HLA-A*33:01 (setting [1]), 11700 nM; with HLA-A*68:01 (setting [1]), 207 nM; with HLA-A*03:01 (setting [1]), 1620 nM; with HLA-A*11:01 (setting [1]) it was 10.8 nM.
Consider QSYRQYRNY, for which the Kd in the assay with HLA-A*31:01 (setting [2]) is 2270 nM; in the assay with HLA-A*33:01 (setting [2]), 109 nM; in the assay with HLA-A*68:01 (setting [2]), 17100 nM; in the assay with HLA-A*03:01 (setting [2]), 2560 nM; with HLA-A*11:01 (setting [2]) it was 1600 nM.
As for RQLFKPLTKK, the Kd with HLA-A*31:01 (setting [1]) came out at 383 nM; with HLA-A*33:01 (setting [1]) it was 3670 nM; in the assay with HLA-A*68:01 (setting [1]), 2130 nM; with HLA-A*03:01 (setting [1]) it was 1.05 nM; with HLA-A*11:01 (setting [1]), 8.16 nM.
In the case of RQQLEDIFMR, the Kd with HLA-A*31:01 (setting [2]) is 7000 nM; with HLA-A*33:01 (setting [2]), at least 58800 nM; in the assay with HLA-A*68:01 (setting [2]), 2560 nM; with HLA-A*03:01 (setting [2]), 4830 nM; in the assay with HLA-A*11:01 (setting [2]) it was 10200 nM.
For SAYLISIFLH, the Kd is 250 nM in the assay with HLA-A*31:01 (setting [3]); 874 nM with HLA-A*33:01 (setting [3]); at least 30900 nM with HLA-A*68:01 (setting [3]); 668 nM in the assay with HLA-A*03:01 (setting [3]); 5450 nM with HLA-A*11:01 (setting [3]).
As for SCMVNHSTYY, the Kd with HLA-A*31:01 (setting [4]) was 7410 nM; with HLA-A*33:01 (setting [4]), 8990 nM; in the assay with HLA-A*68:01 (setting [4]), 15900 nM; in the assay with HLA-A*03:01 (setting [4]), 100 nM; with HLA-A*11:01 (setting [4]) it was 16700 nM.
In the case of SIKIKQDVR, the equilibrium dissociation constant (Kd) in the assay with HLA-A*31:01 (setting [2]) was 313 nM; with HLA-A*33:01 (setting [2]), 4450 nM; with HLA-A*68:01 (setting [2]), 316 nM; with HLA-A*03:01 (setting [2]) it was 10800 nM; in the assay with HLA-A*11:01 (setting [2]) it was 5370 nM.
On the same counts, the results for SILDRIDTR are 71 nM, 113 nM, 189 nM, at least 78000 nM and 499 nM.

Values taken from the Immune Epitope Database (IEDB).
